Test results from patent publication US20120172293A1 (Takeda / Millennium, published 2012).
Non-standard residues stand in square brackets, D forms with d. No end group written: not given here. *: point of attachment. X11 = ((1S)-1-carboxy-3-methylbutyl)carbamoyl, CC(C)C[C@H](NC(=O)*)C(=O)O; Phe(3-Me) = Cc1cccc(C[C@H](N)C(=O)O)c1; Phe(2-Me) = Cc1ccccc1C[C@H](N)C(=O)O; tBuAla = CC(C)(C)C[C@H](N)C(=O)O; 4Pal = N[C@@H](Cc1ccncc1)C(=O)O; Cha = N[C@@H](CC1CCCCC1)C(=O)O; 4Amb = NCc1ccc(C(=O)O)cc1; Abu = CC[C@H](N)C(=O)O; Aib = CC(C)(N)C(=O)O; Ahx = NCCCCCC(=O)O

T1: human Y2 receptor (human, UniProt P49146 1-381)
T1 sequence (looked up): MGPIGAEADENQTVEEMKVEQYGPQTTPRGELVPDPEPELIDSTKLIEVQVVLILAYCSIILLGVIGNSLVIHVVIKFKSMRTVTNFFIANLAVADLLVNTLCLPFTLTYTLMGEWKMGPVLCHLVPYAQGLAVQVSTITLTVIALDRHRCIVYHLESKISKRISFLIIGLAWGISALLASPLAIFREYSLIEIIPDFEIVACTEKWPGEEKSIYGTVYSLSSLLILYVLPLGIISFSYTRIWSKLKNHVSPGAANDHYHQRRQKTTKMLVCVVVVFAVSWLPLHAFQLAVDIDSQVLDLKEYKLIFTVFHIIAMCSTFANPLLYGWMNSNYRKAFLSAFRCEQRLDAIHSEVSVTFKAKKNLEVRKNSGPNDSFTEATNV

T2: human Y2 receptor (human), P49146
T2 chain: T1 sequence (looked up)

B1: Ac-[D-Pro24, Cha27, Leu(Me)28, Lys30, Aib31, Phe(3Me)36]-PYY(23-36) (peptide)
peptide: Ac-S[dP]RH[Cha][tBuAla]NK[Aib]TRQR[Phe(3-Me)]-NH2
SMILES: CC(=O)N[C@@H](CO)C(=O)N1CCC[C@@H]1C(=O)N[C@@H](CCCNC(=N)N)C(=O)N[C@@H](Cc1c[nH]cn1)C(=O)N[C@@H](CC1CCCCC1)C(=O)N[C@@H](CC(C)(C)C)C(=O)N[C@@H](CC(N)=O)C(=O)N[C@@H](CCCCN)C(=O)NC(C)(C)C(=O)N[C@H](C(=O)N[C@@H](CCCNC(=N)N)C(=O)N[C@@H](CCC(N)=O)C(=O)N[C@@H](CCCNC(=N)N)C(=O)N[C@@H](Cc1cccc(C)c1)C(N)=O)[C@@H](C)O
notes: also called compound No. 258
B2: 4-Aminomethylbenzoyl-[Ala26, ILe28,31, Abu32]-PYY(25-36) (peptide)
peptide: [4Amb]RAYINLI[Abu]RQRY-NH2
modifications: N-terminus assumed
SMILES: CC[C@H](NC(=O)[C@@H](NC(=O)[C@H](CC(C)C)NC(=O)[C@H](CC(N)=O)NC(=O)[C@@H](NC(=O)[C@H](Cc1ccc(O)cc1)NC(=O)[C@H](C)NC(=O)[C@H](CCCNC(=N)N)NC(=O)c1ccc(CN)cc1)[C@@H](C)CC)[C@@H](C)CC)C(=O)N[C@@H](CCCNC(=N)N)C(=O)N[C@@H](CCC(N)=O)C(=O)N[C@@H](CCCNC(=N)N)C(=O)N[C@@H](Cc1ccc(O)cc1)C(N)=O
notes: also called compound No. 354
B3: Ac-[D-Pro24, Cha27, Leu(Me)28, Lys30, Aib31, Phe(2Me)36]-PYY(23-36) (peptide)
peptide: Ac-S[dP]RH[Cha][tBuAla]NK[Aib]TRQR[Phe(2-Me)]-NH2
SMILES: CC(=O)N[C@@H](CO)C(=O)N1CCC[C@@H]1C(=O)N[C@@H](CCCNC(=N)N)C(=O)N[C@@H](Cc1c[nH]cn1)C(=O)N[C@@H](CC1CCCCC1)C(=O)N[C@@H](CC(C)(C)C)C(=O)N[C@@H](CC(N)=O)C(=O)N[C@@H](CCCCN)C(=O)NC(C)(C)C(=O)N[C@H](C(=O)N[C@@H](CCCNC(=N)N)C(=O)N[C@@H](CCC(N)=O)C(=O)N[C@@H](CCCNC(=N)N)C(=O)N[C@@H](Cc1ccccc1C)C(N)=O)[C@@H](C)O
notes: also called compound No. 255
B4: [(1S)-1-carboxy-3-methylbutyl]carbamoyl-[D-Pro24, Cha27,36, Leu(Me)28, Lys30, Aib31]-PYY(23-36) (peptide)
peptide: X11-S[dP]RH[Cha][tBuAla]NK[Aib]TRQR[Cha]-NH2
SMILES: CC(C)C[C@H](NC(=O)N[C@@H](CO)C(=O)N1CCC[C@@H]1C(=O)N[C@@H](CCCNC(=N)N)C(=O)N[C@@H](Cc1c[nH]cn1)C(=O)N[C@@H](CC1CCCCC1)C(=O)N[C@@H](CC(C)(C)C)C(=O)N[C@@H](CC(N)=O)C(=O)N[C@@H](CCCCN)C(=O)NC(C)(C)C(=O)N[C@H](C(=O)N[C@@H](CCCNC(=N)N)C(=O)N[C@@H](CCC(N)=O)C(=O)N[C@@H](CCCNC(=N)N)C(=O)N[C@@H](CC1CCCCC1)C(N)=O)[C@@H](C)O)C(=O)O
notes: also called compound No. 253
B5: [Ile22,28,31, Lys23, Acp24, Ala26]-PYY(22-36) (peptide)
peptide: IK[Ahx]RAYINLITRQRY-NH2
modifications: N-terminus assumed
SMILES: CC[C@H](C)[C@H](N)C(=O)N[C@@H](CCCCN)C(=O)NCCCCCC(=O)N[C@@H](CCCNC(=N)N)C(=O)N[C@@H](C)C(=O)N[C@@H](Cc1ccc(O)cc1)C(=O)N[C@H](C(=O)N[C@@H](CC(N)=O)C(=O)N[C@@H](CC(C)C)C(=O)N[C@H](C(=O)N[C@H](C(=O)N[C@@H](CCCNC(=N)N)C(=O)N[C@@H](CCC(N)=O)C(=O)N[C@@H](CCCNC(=N)N)C(=O)N[C@@H](Cc1ccc(O)cc1)C(N)=O)[C@@H](C)O)[C@@H](C)CC)[C@@H](C)CC
notes: also called compound No. 353
B6: Ac-[D-Tyr21, D-Pro24, Cha27,28,36, Aib31]-PYY(20-36) (peptide)
peptide: Ac-Y[dY]AS[dP]RH[Cha][Cha]NL[Aib]TRQR[Cha]-NH2
SMILES: CC(=O)N[C@@H](Cc1ccc(O)cc1)C(=O)N[C@H](Cc1ccc(O)cc1)C(=O)N[C@@H](C)C(=O)N[C@@H](CO)C(=O)N1CCC[C@@H]1C(=O)N[C@@H](CCCNC(=N)N)C(=O)N[C@@H](Cc1c[nH]cn1)C(=O)N[C@@H](CC1CCCCC1)C(=O)N[C@@H](CC1CCCCC1)C(=O)N[C@@H](CC(N)=O)C(=O)N[C@@H](CC(C)C)C(=O)NC(C)(C)C(=O)N[C@H](C(=O)N[C@@H](CCCNC(=N)N)C(=O)N[C@@H](CCC(N)=O)C(=O)N[C@@H](CCCNC(=N)N)C(=O)N[C@@H](CC1CCCCC1)C(N)=O)[C@@H](C)O
notes: also called compound No. 355
B7: Ac-[Arg20, D-Tyr21, D-Pro24, Pya(4)26, Cha27, Aib28,31, Lys30, Phe(2Me)36]-PYY(20-36) (peptide)
peptide: Ac-R[dY]AS[dP]R[4Pal][Cha][Aib]NK[Aib]TRQR[Phe(2-Me)]-NH2
SMILES: CC(=O)N[C@@H](CCCNC(=N)N)C(=O)N[C@H](Cc1ccc(O)cc1)C(=O)N[C@@H](C)C(=O)N[C@@H](CO)C(=O)N1CCC[C@@H]1C(=O)N[C@@H](CCCNC(=N)N)C(=O)N[C@@H](Cc1ccncc1)C(=O)N[C@@H](CC1CCCCC1)C(=O)NC(C)(C)C(=O)N[C@@H](CC(N)=O)C(=O)N[C@@H](CCCCN)C(=O)NC(C)(C)C(=O)N[C@H](C(=O)N[C@@H](CCCNC(=N)N)C(=O)N[C@@H](CCC(N)=O)C(=O)N[C@@H](CCCNC(=N)N)C(=O)N[C@@H](Cc1ccccc1C)C(N)=O)[C@@H](C)O
notes: also called compound No. 261
B8: Ac-[Arg20, D-Tyr21, D-Pro24, Pya(4)26, Cha27, Aib28,31, Lys30, Phe(3Me)36]-PYY(20-36) (peptide)
peptide: Ac-R[dY]AS[dP]R[4Pal][Cha][Aib]NK[Aib]TRQR[Phe(3-Me)]-NH2
SMILES: CC(=O)N[C@@H](CCCNC(=N)N)C(=O)N[C@H](Cc1ccc(O)cc1)C(=O)N[C@@H](C)C(=O)N[C@@H](CO)C(=O)N1CCC[C@@H]1C(=O)N[C@@H](CCCNC(=N)N)C(=O)N[C@@H](Cc1ccncc1)C(=O)N[C@@H](CC1CCCCC1)C(=O)NC(C)(C)C(=O)N[C@@H](CC(N)=O)C(=O)N[C@@H](CCCCN)C(=O)NC(C)(C)C(=O)N[C@H](C(=O)N[C@@H](CCCNC(=N)N)C(=O)N[C@@H](CCC(N)=O)C(=O)N[C@@H](CCCNC(=N)N)C(=O)N[C@@H](Cc1cccc(C)c1)C(N)=O)[C@@H](C)O
notes: also called compound No. 262

Target: T1, human Y2 receptor
Assay: cell-based or functional assay

| GBA EC50 Ratio ([35S]GTPγS binding) | Binder |
| --- | --- |
| 0.78 EC50 compound/EC50 PYY(3-36) | B1 |
| 33 EC50 compound/EC50 PYY(3-36) | B2 |
| 0.86 EC50 compound/EC50 PYY(3-36) | B3 |
| 0.85 EC50 compound/EC50 PYY(3-36) | B4 |
| 4.8 EC50 compound/EC50 PYY(3-36) | B5 |
| 1.1 EC50 compound/EC50 PYY(3-36) | B6 |
| 0.81 EC50 compound/EC50 PYY(3-36) | B7 |
| 1.7 EC50 compound/EC50 PYY(3-36) | B8 |

Target: T2, human Y2 receptor (human), P49146
Assay: cell-based or functional assay

| GBA EC50 Ratio (vs PYY(3-36)), [35S]GTPγS | Binder |
| --- | --- |
| 4 | [4Amb]RAYINLVTRQRY (ends and bridges not checked) [4-Aminomethylbenzoyl-[Ala26, Ile28, VAl31]-PYY(25-36)] |

Target: T2, human Y2 receptor (human), P49146
Assay: RBA: [125I]-PYY displacement, hY2R/CHO membranes

| IC50 Ratio (vs PYY(3-36)) | Binder |
| --- | --- |
| 7.2 | [4Amb]RAYINLVTRQRY (ends and bridges not checked) [4-Aminomethylbenzoyl-[Ala26, Ile28, VAl31]-PYY(25-36)] |

Target: T1, human Y2 receptor
Assay: RBA: displacement of [125I]-PYY from hY2R/CHO membranes
Description: After incubation at room temperature for 60 minutes, the mixture was filtered through the cell harvester FilterMate (PerkinElmer) using UniFilter-96 GF/C treated with polyethylenimine (PEI) solution (20 mM Tris, 0.3% PEI, pH 7.4), and the filter was washed 3 times with a filtering buffer (50 mM Tris, 5 mM MgCl₂, 150 mM NaCl, 0.03% NaN₃, 0.05% CHAPS, pH 7.4). Thereafter, UniFilter-96 GF/C was dried in a mechanical drier for 1 hour, 15 μl of the liquid scintillator MicroScint O (PerkinElmer) was added to each well, and a measurement was taken using TopCount (PerkinElmer). The data obtained were analyzed using Prism to calculate the IC₅₀ value.

| IC50 Ratio | Binder |
| --- | --- |
| 0.61 IC50 compound/IC50 PYY(3-36) | B1 |
| 68 IC50 compound/IC50 PYY(3-36) | B2 |
| 0.8 IC50 compound/IC50 PYY(3-36) | B3 |
| 1.1 IC50 compound/IC50 PYY(3-36) | B4 |
| 9.1 IC50 compound/IC50 PYY(3-36) | B5 |
| 1.4 IC50 compound/IC50 PYY(3-36) | B6 |
| 0.54 IC50 compound/IC50 PYY(3-36) | B7 |
| 0.5 IC50 compound/IC50 PYY(3-36) | B8 |
